Numbering of substitutions follows the chain as printed. In names and notes the source's numbering stands.
T1: TNFR1 (Homo sapiens, UniProt P19438)
T1 chain: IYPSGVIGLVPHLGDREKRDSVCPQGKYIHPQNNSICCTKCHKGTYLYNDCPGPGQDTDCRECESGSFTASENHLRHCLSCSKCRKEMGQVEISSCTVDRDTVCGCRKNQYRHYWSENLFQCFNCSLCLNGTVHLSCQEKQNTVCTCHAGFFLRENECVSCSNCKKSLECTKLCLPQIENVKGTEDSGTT

B1: L99A (designed binder)
chain: SMEEEVEKAAKEYEKKKKEAIEKHLEKLKAKDKEAAERFLKELEEAAKEYAKDEAKTMSEEEAKRRAKKYKEKVLLSELSEEEQKEIKEAEEKLVRTIAKYVEEAAK
B2: K17C (designed binder)
chain: B1 chain with K17C, A99L
B3: A63M (designed binder)
chain: B1 chain with A63M, A99L
B4: K69D (designed binder)
chain: B1 chain with K69D, A99L
B5: K56E (designed binder)
chain: B1 chain with K56E, A99L
B6: R65G (designed binder)
chain: B1 chain with R65G, A99L
B7: A35E (designed binder)
chain: B1 chain with A35E, A99L
B8: S1V (designed binder)
chain: B1 chain with S1V, A99L
B9: V102N (designed binder)
chain: B1 chain with A99L, V102N
B10: I98N (designed binder)
chain: B1 chain with I98N, A99L
B11: L25N (designed binder)
chain: B1 chain with L25N, A99L
B12: L75W (designed binder)
chain: B1 chain with L75W, A99L
B13: E49H (designed binder)
chain: B1 chain with E49H, A99L
B14: E72D (designed binder)
chain: B1 chain with E72D, A99L
B15: K71C (designed binder)
chain: B1 chain with K71C, A99L
B16: V102Y (designed binder)
chain: B1 chain with A99L, V102Y
B17: E60M (designed binder)
chain: B1 chain with E60M, A99L
B18: E44G (designed binder)
chain: B1 chain with E44G, A99L
B19: L94E (designed binder)
chain: B1 chain with L94E, A99L
B20: V6P (designed binder)
chain: B1 chain with V6P, A99L
B21: E54M (designed binder)
chain: B1 chain with E54M, A99L
B22: A55I (designed binder)
chain: B1 chain with A55I, A99L
B23: E60Q (designed binder)
chain: B1 chain with E60Q, A99L
B24: K17W (designed binder)
chain: B1 chain with K17W, A99L
B25: E103H (designed binder)
chain: B1 chain with A99L, E103H
B26: R38P (designed binder)
chain: B1 chain with R38P, A99L
B27: A51D (designed binder)
chain: B1 chain with A51D, A99L
B28: H24G (designed binder)
chain: B1 chain with H24G, A99L
B29: E5V (designed binder)
chain: B1 chain with E5V, A99L
B30: K23R (designed binder)
chain: B1 chain with K23R, A99L
B31: E92F (designed binder)
chain: B1 chain with E92F, A99L
B32: K15C (designed binder)
chain: B1 chain with K15C, A99L
B33: K93I (designed binder)
chain: B1 chain with K93I, A99L
B34: E44L (designed binder)
chain: B1 chain with E44L, A99L
B35: E45L (designed binder)
chain: B1 chain with E45L, A99L
B36: Y50E (designed binder)
chain: B1 chain with Y50E, A99L
B37: I98T (designed binder)
chain: B1 chain with I98T, A99L
B38: D53Q (designed binder)
chain: B1 chain with D53Q, A99L
B39: E54I (designed binder)
chain: B1 chain with E54I, A99L
B40: L99Y (designed binder)
chain: B1 chain with A99Y
B41: E62M (designed binder)
chain: B1 chain with E62M, A99L
B42: I87D (designed binder)
chain: B1 chain with I87D, A99L
B43: E78V (designed binder)
chain: B1 chain with E78V, A99L
B44: E34Y (designed binder)
chain: B1 chain with E34Y, A99L
B45: V102S (designed binder)
chain: B1 chain with A99L, V102S
B46: L99C (designed binder)
chain: B1 chain with A99C
B47: K23S (designed binder)
chain: B1 chain with K23S, A99L
B48: K18P (designed binder)
chain: B1 chain with K18P, A99L
B49: A90S (designed binder)
chain: B1 chain with A90S, A99L
B50: E91C (designed binder)
chain: B1 chain with E91C, A99L
B51: L75V (designed binder)
chain: B1 chain with L75V, A99L
B52: E92S (designed binder)
chain: B1 chain with E92S, A99L
B53: E37P (designed binder)
chain: B1 chain with E37P, A99L
B54: E82Y (designed binder)
chain: B1 chain with E82Y, A99L
B55: E26Y (designed binder)
chain: B1 chain with E26Y, A99L
B56: E62T (designed binder)
chain: B1 chain with E62T, A99L
B57: L40M (designed binder)
chain: B1 chain with L40M, A99L
B58: L76T (designed binder)
chain: B1 chain with L76T, A99L
B59: E91Y (designed binder)
chain: B1 chain with E91Y, A99L

Biological target: T1, TNFR1
Experiment: yeast display SC50

Row | Binder | apparent Kd (screen)
1 | B1 | 16.7 nM
2 | B2 | 2.73 nM
3 | B3 | 9.41 nM
4 | B4 | 1.4 nM
5 | B5 | 1.86 nM
6 | B6 | 0.956 nM
7 | B7 | 2.25 nM
8 | B8 | 0.869 nM
9 | B9 | 0.446 nM
10 | B10 | 5.84 nM
11 | B11 | 0.539 nM
12 | B12 | 0.446 nM
13 | B13 | 10.4 nM
14 | B14 | 1.4 nM
15 | B15 | 0.446 nM
16 | B16 | 2.73 nM
17 | B17 | 0.49 nM
18 | B18 | 2.48 nM
19 | B19 | 8.56 nM
20 | B20 | 0.446 nM

Row | Binder | apparent Kd (screen)
21 | B21 | 2.48 nM
22 | B22 | 3 nM
23 | B23 | 1.05 nM
24 | B24 | 1.16 nM
25 | B25 | 0.446 nM
26 | B26 | 11.4 nM
27 | B27 | 12.5 nM
28 | B28 | 0.718 nM
29 | B29 | 1.27 nM
30 | B30 | 0.49 nM
31 | B31 | 13.8 nM
32 | B32 | 1.27 nM
33 | B33 | 1.69 nM
34 | B34 | 1.4 nM
35 | B35 | 1.69 nM
36 | B36 | 9.41 nM
37 | B37 | 15.2 nM
38 | B38 | 2.05 nM
39 | B39 | 13.8 nM
40 | B40 | 9.41 nM

Row | Binder | apparent Kd (screen)
41 | B41 | 0.446 nM
42 | B42 | 15.2 nM
43 | B43 | 0.593 nM
44 | B44 | 0.539 nM
45 | B45 | 0.446 nM
46 | B46 | 13.8 nM
47 | B47 | 0.49 nM
48 | B48 | 5.84 nM
49 | B49 | 0.79 nM
50 | B50 | 13.8 nM
51 | B51 | 0.446 nM
52 | B52 | 7.07 nM
53 | B53 | 0.49 nM
54 | B54 | 0.653 nM
55 | B55 | 0.869 nM
56 | B56 | 1.54 nM
57 | B57 | 0.593 nM
58 | B58 | 0.653 nM
59 | B59 | 8.56 nM

Source: publication PMC12416549 (2024)
